T1: 1xMBD-GFP (UniProt Q9Z2E2 1-75)
T1 sequence: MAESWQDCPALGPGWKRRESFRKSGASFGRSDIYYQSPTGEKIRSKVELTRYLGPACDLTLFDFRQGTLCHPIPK

B1: o_m_m/m_o_m (dsDNA)
DNA 1: TTTGCGGTCCGCTGCCCGACCC
DNA 2: GGGTCGGGCAGCGGACCGCAAA
modifications: strand 1 5mC10,5mC17; strand 2 5mC5,5mC17
B2: o_m_o/o_o_o (dsDNA)
DNA 1: TTTGCGGTCCGCTGCCCGACCC
DNA 2: GGGTCGGGCAGCGGACCGCAAA
modifications: strand 1 5mC10
B3: o_o_o/m_m_m (dsDNA)
DNA 1: TTTGCGGTCCGCTGCCCGACCC
DNA 2: GGGTCGGGCAGCGGACCGCAAA
modifications: strand 2 5mC5,5mC12,5mC17
B4: m_o_o/m_m_m (dsDNA)
DNA 1: TTTGCGGTCCGCTGCCCGACCC
DNA 2: GGGTCGGGCAGCGGACCGCAAA
modifications: strand 1 5mC5; strand 2 5mC5,5mC12,5mC17
B5: m_o_o*/m_m_m (dsDNA)
DNA 1: GTAGTTTGCGGTCCGCTGCCCGACC
DNA 2: GGGTCGGGCAGCGGACCGCAAA
modifications: strand 1 5mC9; strand 2 5mC5,5mC12,5mC17
B6: o_m_o/m_m_m (dsDNA)
DNA 1: TTTGCGGTCCGCTGCCCGACCC
DNA 2: GGGTCGGGCAGCGGACCGCAAA
modifications: strand 1 5mC10; strand 2 5mC5,5mC12,5mC17
B7: o_m_m/m_m_m (dsDNA)
DNA 1: TTTGCGGTCCGCTGCCCGACCC
DNA 2: GGGTCGGGCAGCGGACCGCAAA
modifications: strand 1 5mC10,5mC17; strand 2 5mC5,5mC12,5mC17
B8: o_o_o_o/o_o_o_o (dsDNA)
DNA 1: GAAGTCAACAGGACGGACGCCGCGCAA
DNA 2: CTCTTTCTTTGCGCGGCGTCCGTCCTGTTGACTTCCTCT
B9: m_o_o_o/o_o_o_o (dsDNA)
DNA 1: GAAGTCAACAGGACGGACGCCGCGCAA
DNA 2: CTCTTTCTTTGCGCGGCGTCCGTCCTGTTGACTTCCTCT
modifications: strand 1 5mC14
B10: o_m_o_o/o_o_o_o (dsDNA)
DNA 1: GAAGTCAACAGGACGGACGCCGCGCAA
DNA 2: CTCTTTCTTTGCGCGGCGTCCGTCCTGTTGACTTCCTCT
modifications: strand 1 5mC18
B11: o_o_m_o/o_o_o_o (dsDNA)
DNA 1: GAAGTCAACAGGACGGACGCCGCGCAA
DNA 2: CTCTTTCTTTGCGCGGCGTCCGTCCTGTTGACTTCCTCT
modifications: strand 1 5mC21
B12: o_o_m/o_o_o (dsDNA)
DNA 1: TTTGCGGTCCGCTGCCCGACCC
DNA 2: GGGTCGGGCAGCGGACCGCAAA
modifications: strand 1 5mC17
B13: o_o_o_m/o_o_o_o (dsDNA)
DNA 1: GAAGTCAACAGGACGGACGCCGCGCAA
DNA 2: CTCTTTCTTTGCGCGGCGTCCGTCCTGTTGACTTCCTCT
modifications: strand 1 5mC23
B14: o_o_o_o/o_o_m_o (dsDNA)
DNA 1: GAAGTCAACAGGACGGACGCCGCGCAA
DNA 2: CTCTTTCTTTGCGCGGCGTCCGTCCTGTTGACTTCCTCT
modifications: strand 2 5mC14
B15: m_o_o_o/o_o_m_o (dsDNA)
DNA 1: GAAGTCAACAGGACGGACGCCGCGCAA
DNA 2: CTCTTTCTTTGCGCGGCGTCCGTCCTGTTGACTTCCTCT
modifications: strand 1 5mC14; strand 2 5mC14
B16: o_m_o_o/o_o_m_o (dsDNA)
DNA 1: GAAGTCAACAGGACGGACGCCGCGCAA
DNA 2: CTCTTTCTTTGCGCGGCGTCCGTCCTGTTGACTTCCTCT
modifications: strand 1 5mC18; strand 2 5mC14
B17: o_o_m_o/o_o_m_o (dsDNA)
DNA 1: GAAGTCAACAGGACGGACGCCGCGCAA
DNA 2: CTCTTTCTTTGCGCGGCGTCCGTCCTGTTGACTTCCTCT
modifications: strand 1 5mC21; strand 2 5mC14
B18: o_o_o_m/o_o_m_o (dsDNA)
DNA 1: GAAGTCAACAGGACGGACGCCGCGCAA
DNA 2: CTCTTTCTTTGCGCGGCGTCCGTCCTGTTGACTTCCTCT
modifications: strand 1 5mC23; strand 2 5mC14
B19: o_o_o_o/o_m_m_o (dsDNA)
DNA 1: GAAGTCAACAGGACGGACGCCGCGCAA
DNA 2: CTCTTTCTTTGCGCGGCGTCCGTCCTGTTGACTTCCTCT
modifications: strand 2 5mC14,5mC17
B20: m_o_o_o/o_m_m_o (dsDNA)
DNA 1: GAAGTCAACAGGACGGACGCCGCGCAA
DNA 2: CTCTTTCTTTGCGCGGCGTCCGTCCTGTTGACTTCCTCT
modifications: strand 1 5mC14; strand 2 5mC14,5mC17
B21: o_m_o_o/o_m_m_o (dsDNA)
DNA 1: GAAGTCAACAGGACGGACGCCGCGCAA
DNA 2: CTCTTTCTTTGCGCGGCGTCCGTCCTGTTGACTTCCTCT
modifications: strand 1 5mC18; strand 2 5mC14,5mC17
B22: o_o_m_o/o_m_m_o (dsDNA)
DNA 1: GAAGTCAACAGGACGGACGCCGCGCAA
DNA 2: CTCTTTCTTTGCGCGGCGTCCGTCCTGTTGACTTCCTCT
modifications: strand 1 5mC21; strand 2 5mC14,5mC17
B23: o_m_m/o_o_o (dsDNA)
DNA 1: TTTGCGGTCCGCTGCCCGACCC
DNA 2: GGGTCGGGCAGCGGACCGCAAA
modifications: strand 1 5mC10,5mC17
B24: o_o_o_m/o_m_m_o (dsDNA)
DNA 1: GAAGTCAACAGGACGGACGCCGCGCAA
DNA 2: CTCTTTCTTTGCGCGGCGTCCGTCCTGTTGACTTCCTCT
modifications: strand 1 5mC23; strand 2 5mC14,5mC17
B25: o_o_o_o/o_o_m_m (dsDNA)
DNA 1: GAAGTCAACAGGACGGACGCCGCGCAA
DNA 2: CTCTTTCTTTGCGCGGCGTCCGTCCTGTTGACTTCCTCT
modifications: strand 2 5mC12,5mC14
B26: m_o_o_o/o_o_m_m (dsDNA)
DNA 1: GAAGTCAACAGGACGGACGCCGCGCAA
DNA 2: CTCTTTCTTTGCGCGGCGTCCGTCCTGTTGACTTCCTCT
modifications: strand 1 5mC14; strand 2 5mC12,5mC14
B27: o_m_o_o/o_o_m_m (dsDNA)
DNA 1: GAAGTCAACAGGACGGACGCCGCGCAA
DNA 2: CTCTTTCTTTGCGCGGCGTCCGTCCTGTTGACTTCCTCT
modifications: strand 1 5mC18; strand 2 5mC12,5mC14
B28: o_o_m_o/o_o_m_m (dsDNA)
DNA 1: GAAGTCAACAGGACGGACGCCGCGCAA
DNA 2: CTCTTTCTTTGCGCGGCGTCCGTCCTGTTGACTTCCTCT
modifications: strand 1 5mC21; strand 2 5mC12,5mC14
B29: o_o_o_m/o_o_m_m (dsDNA)
DNA 1: GAAGTCAACAGGACGGACGCCGCGCAA
DNA 2: CTCTTTCTTTGCGCGGCGTCCGTCCTGTTGACTTCCTCT
modifications: strand 1 5mC23; strand 2 5mC12,5mC14
B30: o_o_o_o/m_m_o_o (dsDNA)
DNA 1: GAAGTCAACAGGACGGACGCCGCGCAA
DNA 2: CTCTTTCTTTGCGCGGCGTCCGTCCTGTTGACTTCCTCT
modifications: strand 2 5mC17,5mC21
B31: m_o_o_o/m_m_o_o (dsDNA)
DNA 1: GAAGTCAACAGGACGGACGCCGCGCAA
DNA 2: CTCTTTCTTTGCGCGGCGTCCGTCCTGTTGACTTCCTCT
modifications: strand 1 5mC14; strand 2 5mC17,5mC21
B32: o_m_o_o/m_m_o_o (dsDNA)
DNA 1: GAAGTCAACAGGACGGACGCCGCGCAA
DNA 2: CTCTTTCTTTGCGCGGCGTCCGTCCTGTTGACTTCCTCT
modifications: strand 1 5mC18; strand 2 5mC17,5mC21
B33: o_o_m_o/m_m_o_o (dsDNA)
DNA 1: GAAGTCAACAGGACGGACGCCGCGCAA
DNA 2: CTCTTTCTTTGCGCGGCGTCCGTCCTGTTGACTTCCTCT
modifications: strand 1 5mC21; strand 2 5mC17,5mC21
B34: o_o_o/m_o_o (dsDNA)
DNA 1: TTTGCGGTCCGCTGCCCGACCC
DNA 2: GGGTCGGGCAGCGGACCGCAAA
modifications: strand 2 5mC17
B35: o_o_o_m/m_m_o_o (dsDNA)
DNA 1: GAAGTCAACAGGACGGACGCCGCGCAA
DNA 2: CTCTTTCTTTGCGCGGCGTCCGTCCTGTTGACTTCCTCT
modifications: strand 1 5mC23; strand 2 5mC17,5mC21
B36: m_o_o/m_o_o (dsDNA)
DNA 1: TTTGCGGTCCGCTGCCCGACCC
DNA 2: GGGTCGGGCAGCGGACCGCAAA
modifications: strand 1 5mC5; strand 2 5mC17
B37: m_o_o*/m_o_o (dsDNA)
DNA 1: GTAGTTTGCGGTCCGCTGCCCGACC
DNA 2: GGGTCGGGCAGCGGACCGCAAA
modifications: strand 1 5mC9; strand 2 5mC17
B38: o_m_o/m_o_o (dsDNA)
DNA 1: TTTGCGGTCCGCTGCCCGACCC
DNA 2: GGGTCGGGCAGCGGACCGCAAA
modifications: strand 1 5mC10; strand 2 5mC17
B39: o_o_m/m_m_m (dsDNA)
DNA 1: TTTGCGGTCCGCTGCCCGACCC
DNA 2: GGGTCGGGCAGCGGACCGCAAA
modifications: strand 1 5mC17; strand 2 5mC5,5mC12,5mC17

target: T1, 1xMBD-GFP; experiment: SPR

Going from B1 to B2, the Kd rises from 0.169 ± 0.002 µM to 10 ± 0.1 µM (59-fold). The first binds more tightly here.

Compared with B3, B4 is 2.1-fold lower in Kd: 4.6 ± 0.2 µM for the first, 2.2 ± 0.02 µM for the second. The second binds more tightly here.

B5 and B6 are within 1.5-fold of each other in Kd: 0.534 ± 0.004 µM for the first, 0.398 ± 0.002 µM for the second.

First: B7
Second: B8
The Kd of the first is 200-fold lower: 0.181 ± 0.001 µM for the first, 37 ± 2 µM for the second. The first binds more tightly here.

B9 and B10 are within 1.5-fold of each other in Kd: 16.8 ± 0.5 µM for the first, 14.7 ± 0.4 µM for the second.

B11 and B12 are within 1.5-fold of each other in Kd: 5.86 ± 0.09 µM for the first, 6.8 ± 0.1 µM for the second.

Compared with B13, B14 is 2.1-fold lower in Kd: 7.6 ± 0.2 µM for the first, 3.66 ± 0.05 µM for the second.

B15 and B16 are within 1.5-fold of each other in Kd: 3.51 ± 0.03 µM for the first, 3.12 ± 0.04 µM for the second.

Going from B17 to B18, the Kd rises from 0.106 ± 0.001 µM to 2.65 ± 0.03 µM (25-fold). The first binds more tightly here.

B19 and B20 are within 1.5-fold of each other in Kd: 3.19 ± 0.03 µM for the first, 2.4 ± 0.09 µM for the second.

Compared with B21, B22 is 2-fold lower in Kd: 0.315 ± 0.004 µM for the first, 0.158 ± 0.003 µM for the second. The second binds more tightly here.

Going from B23 to B24, the Kd falls from 3.09 ± 0.02 µM to 1.94 ± 0.02 µM (1.6-fold). The second binds more tightly here.

B25 and B26 are within 1.5-fold of each other in Kd: 4.5 ± 0.1 µM for the first, 3.11 ± 0.03 µM for the second.

First: B27
Second: B28
The Kd of the first is 15-fold higher: 2.4 ± 0.04 µM for the first, 0.156 ± 0.002 µM for the second. The second binds more tightly here.

Going from B29 to B30, the Kd rises from 0.281 ± 0.007 µM to 7.5 ± 0.2 µM (27-fold).

B31 and B32 are within 1.5-fold of each other in Kd: 0.561 ± 0.006 µM for the first, 0.377 ± 0.007 µM for the second.

First: B33
Second: B34
The Kd of the first is 9.7-fold lower: 4.97 ± 0.07 µM for the first, 48 ± 2 µM for the second. The first binds more tightly here.

B35 and B36 are within 1.5-fold of each other in Kd: 3.94 ± 0.06 µM for the first, 4.2 ± 0.04 µM for the second.

Going from B37 to B38, the Kd rises from 0.87 ± 0.01 µM to 8 ± 0.1 µM (9.2-fold). The first binds more tightly here.

target: T1, 1xMBD-GFP; experiment: SPR; remark: another data set of the same source

For B39, the Kd was 0.189 ± 0.001 µM.

target: T1, 1xMBD-GFP; experiment: SPR; remark: another data set of the same source

Work on B39 yielded a Kd of 0.209 ± 0.002 µM.
